Experiment [1] deals with SNAP-25 peptide comprising amino acids 134-197 of SEQ ID NO:5 (human). Put plainly: SPR (BIAcore 3000), peptide on CM5 chip, 1:1 fit. For orientation: Surface plasmon resonance follows binding to a sensor surface in real time, without labels.
In experiment [2] the target is SNAP-25 peptide comprising amino acids 134-206 of SEQ ID NO:5 (human). Put plainly: SPR (BIAcore 3000), peptide on CM5 chip, 1:1 fit.

Take “MC-6050 mouse α-SNAP-25 monoclonal antibody (Research & Diagnostic Antibodies)”: in experiment [1], the dissociation constant (Kd) – broadly, a measure of binding affinity in units of concentration – was 0.000497 µM; the koff (as a rule, the rate constant with which the complex falls apart) was determined as 0.000882 s⁻¹; the kon – broadly, the second-order rate constant of association – came out at 1.78e+06 M⁻¹ s⁻¹. Further, in experiment [2], the Kd turned out to be 19.8 µM, the koff was 0.00607 s⁻¹ and the kon turned out to be 306 M⁻¹ s⁻¹.

In experiment [1], “MC-6053 mouse α-SNAP-25 monoclonal antibody (Research & Diagnostic Antibodies)” yielded a Kd of 0.000508 µM, a koff of 0.00118 s⁻¹ and a kon of 2.32e+06 M⁻¹ s⁻¹. In addition, in experiment [2], the Kd is 0.24 µM and the koff was determined as 2.56e-05 s⁻¹.

These data come from US20170248602A1.
